The assay has as its target unmethylated D2 peptide (amino acids 208-243 of the third intracellular loop of the human D2 receptor) (human) (UniProt P14416). In words: fluorescence polarisation; anisotropy; fluorescently labelled D2 peptide at 0.025 µM final, Par-4 or CaM added from 10x stocks of 0-20 µM; 200 mM NaCl, 200 µM CaCl2, 50 mM Tris pH 7.5; room temperature, ten minutes; average of four trials.

Sequence of unmethylated D2 peptide (amino acids 208-243 of the third intracellular loop of the human D2 receptor) (human) (P14416 208-243): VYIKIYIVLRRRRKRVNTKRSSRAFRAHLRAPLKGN

As to “human Par-4 (prostate apoptosis response 4 protein) (from UniProt Q96IZ0 1-340) (natural protein)”, the Kd is 21.6 nM.
